From PMC8519878 (Cell Reports, 2021)

Target: SARS-CoV-2 S2P spike (SARS-CoV-2, ancestral spike (P0DTC2 …, stabilised))
Assay: cryo-EM structure

B1: antigen-binding fragment (Fab) of antibody 5-7, expressed as Fab (Fab, V domains shown)
VH: QVQLVQSGAEVKKPGASVKVSCKASGYTFTSYYMHWVRQAPGQGLEWMGVINPSGGSTSYAEKFRGRVTMTRDTSTSTVYMELSSLRSEDTAVYYCARDREPHSDSSGYWDSLKYYYYYALDVWGQGTTVTVSS
VL: AIQLTQSPSSLSASVGDRVTITCRASQGISSYLAWYQQKPGKAPELLIYAASTLQSGVPSRFSGSGSGTDFTLTISSLQPEDFATYYCQQLNTYPFTFGPGTKVDIK
  stoichiometry N: 3 Fabs per trimer
